From patent publication US20240417437A1, “Linker Polypeptides” (Trutino Biosciences Inc., priority 2021, published 2024)

What was measured:
B16F10 melanoma cells [1] = experiment: B16F10 melanoma tumor growth inhibition study; format: in vivo; settings: 20 mg/kg IV Q3D, 5 doses, B16F10 in C57BL/6 mice
Description: C57BL/6 mice were subcutaneously inoculated with B16F10 melanoma cells and when the average tumor volume reached on average 70-90 mm^3, animals were randomized into 6 groups based on tumor volumes (n=8 mice per treatment group). Mice were dosed intravenously every 3 days (Q3D) for a total of 5 doses according to Table 7.
Tumor volumes were measured twice a week for the duration of the study. […] On day 14, animals were sacrificed, and tissues and blood (processed to serum) were collected 24 hours post final dose (dose #5) and stored at −80° C. until further testing.

B16F10 melanoma cells [2] = experiment: Tumor lysate levels of full-length fusion protein (ELISA), IL-2 and IFN-γ (Luminex), B16F10 study; format: in vivo, C57BL/6 mice; settings: tumor lysate 24 hours after last dose
Description: An ELISA assay was developed to detect and quantify prodrug fusion proteins comprising IL-2 and IL-2Ra moieties. Wells of a 96-well plate were coated overnight with 100 μL of a rat anti-mouse IL-2 monoclonal antibody (JES6-1A12; ThermoFisher) at […] in PBS. After washing, wells are blocked with TBS/0.05% Tween 20/1% BSA, then fusion proteins and/or unknown biological samples were added for 1 hour at room temperature. After washing, an anti-mouse IL-2Ra biotin-labelled detection antibody (BAF2438, R&D systems) was added and binding was detected using Ultra Strepavidin HRP (ThermoFisher). The ELISA plate was developed by adding the chromogenic tetramethylbenzidine substrate (Ultra TMB, ThermoFisher). The reaction was stopped by addition of 0.5 M H2SO4, and the absorbance was read at 450-650 nm.
The levels of full-length IL-2-IL-2Ra fusion proteins, IL-2, and IFN-7 were quantified in tumor samples collected during a pre-clinical efficacy study comparing a panel of retention linker IL-2 fusion drugs (see Example 10).
Tumors (n=3 per group) were collected 24 hours after the last dose injection, flash frozen, and stored at −80° C. until further processing. Tumor lysates were generated using tissue extraction reagent (ThermoFisher) supplemented with protease and phosphatase inhibitors. Standard techniques and protein concentrations were determined using the BCA assay (Pierce). […]

[3] = Link_TGS6; cited from earlier work
[4] = test system: EMT6 breast cancer syngeneic model; experiment: Real-time whole-body imaging of Dylight 650 labelled IL-2 fusion proteins in tumors; format: in vivo; settings: 8 mg/kg IV once, each time-point over 96 hours, EMT6 tumor-bearing BALB/c mice
Description: The levels of IL-2 fusion proteins present in tumors in vivo were assessed by utilizing fluorescently labelled proteins and real-time whole-body imaging. Non-cleavable Construct GGG and Construct DD were conjugated to Dylight 650 probe according to the manufacturer's protocol (Dylight 650 Antibody labeling kit, ThermoFisher). […] BALB/c mice were subcutaneously inoculated with EMT6 breast cancer syngeneic model, and when the average tumor volume reached 240 mm^3, animals were randomized into 3 groups based on tumor volumes (n=2 mice per treatment group).
Following administration of a single dose of the labeled IL-2 fusion proteins to tumor-bearing mice, fluorescent images (excitation 640/emission 680 consistent with Dylight 650 probe ex/em spectra) were captured over 96 hours on an IVIS system (PerkinElmer, IVIS Lumina Series III) and are shown in FIG. 5A. The fluorescence intensity in tumor areas was quantified across the groups, average background tumor fluorescence (group 1) was subtracted from group 2 and 3 values at each time-point, and data were normalized to the initial fluorescence intensity of same amount of each labeled protein. […] This signifies next generation retention linker Construct DD accumulated and was retained in tumors at 2-fold higher levels compared to IL-2 fusion protein Construct GGG, lacking any targeting sequence.

B1: Construct III: mIL2-VRIQRKKEKMKET-MMPcs1-GGSKLWVLPKGS-mIL2Ra-muIgG1Fc; hep/col IV (protein)
chain: APTSSSTSSSTAEAQQQQQQQQQQQQHLEQLLMDLQELLSRMENYRNLKLPRMLTFKFYLPKQATELKDLQCLEDELGPLRHVLDLTQSKSFQLEDAENFISNIRVTVVKLKGSDNTFECQFDDESATVVDFLRRWIAFCQSIISTSPQVRIQRKKEKMKETGPLGVRGGGSKLWVLPKGSELCLYDPPEVPNATFKALSYKNGTILNCECKRGFRRLKELVYMRCLGNSWSSNCQCTSNSHDKSRKQVTAQLEHQKEQQTTTDMQKPTQSMHQENLTGHCREPPPWKHEDSKRIYHFVEGQSVHYECIPGYKALQRGPAISICKMKCGKTGWTQPQLTCVDEREHHRFLASEESQGSRNSSPESETSCPITTTDFPQPTETTAMTETFVLTMEYKGCKPCICTVPEVSSVFIFPPKPKDVLTITLTPKVTCVVVDISKDDPEVQFSWFVDDVEVHTAQTQPREEQFNSTFRSVSELPIMHQDWLNGKEFKCRVNSAAFPAPIEKTISKTKGRPKAPQVYTIPPPKEQMAKDKVSLTCMITDFFPEDITVEWQWNGQPAENYKNTQPIMDTDGSYFVYSKLNVQKSNWEAGNTFTCSVLHEGLHNHHTEKSLSHSPGK
modifications: Synthetic: Construct III
notes: mIL2-…-MMPcs1-…-mIL2Ra-muIgG1Fc; hep/col IV
tumor growth inhibition (TGI) (B16F10 melanoma cells [1]): 83.5% | levels of IFN-7 in tumors (B16F10 melanoma cells [2]): enhanced | IL-2 intratumoral levels (B16F10 melanoma cells [2]; compared to other arms): highest

B2: 641 (protein)
chain: GVYHREARSGKYKLTYAEAKAVCEFEGGHLATYKGLEAARKIGFHVCAAGWMAKGRVGYPIVKPGPPNCGFGKTGIIDYGIRLNRSERWDAYCYNPHA
modifications: Synthetic: hyaluronic acid; pH dependent (Link_TGS6)
Note 2: pH dependence of binding to hyaluronic acid [3]: binds better at lower pH

B3: Construct DD: mIL2-2x(GHHPH)-MMPscr-2x(G4S)-mIL2Ra(1-215)-muIgG1Fc; pH heparin (protein)
chain: APTSSSTSSSTAEAQQQQQQQQQQQQHLEQLLMDLQELLSRMENYRNLKLPRMLTFKFYLPKQATELKDLQCLEDELGPLRHVLDLTQSKSFQLEDAENFISNIRVTVVKLKGSDNTFECQFDDESATVVDFLRRWIAFCQSIISTSPQGHHPHGHHPHGVRLGPGGGGGSGGGGSELCLYDPPEVPNATFKALSYKNGTILNCECKRGFRRLKELVYMRCLGNSWSSNCQCTSNSHDKSRKQVTAQLEHQKEQQTTTDMQKPTQSMHQENLTGHCREPPPWKHEDSKRIYHFVEGQSVHYECIPGYKALQRGPAISICKMKCGKTGWTQPQLTCVDEREHHRFLASEESQGSRNSSPESETSCPITTTDFPQPTETTAMTETFVLTMEYKGCKPCICTVPEVSSVFIFPPKPKDVLTITLTPKVTCVVVDISKDDPEVQFSWFVDDVEVHTAQTQPREEQFNSTFRSVSELPIMHQDWLNGKEFKCRVNSAAFPAPIEKTISKTKGRPKAPQVYTIPPPKEQMAKDKVSLTCMITDFFPEDITVEWQWNGQPAENYKNTQPIMDTDGSYFVYSKLNVQKSNWEAGNTFTCSVLHEGLHNHHTEKSLSHSPGK
modifications: Synthetic: Construct DD
notes: mIL2-2x(GHHPH)-MMPscr-2x(G4S)-mIL2Ra(1-215)-muIgG1Fc; pH heparin
tumor-associated fluorescence / level retained in tumors, fold higher compared to Construct GGG [4]: roughly 2 fold
